Columns and labels:
[1] = system: Pseudomonas aeruginosa PA01; assay: Galleria mellonella Pseudomonas aeruginosa infected model, viability; format: in vivo; conditions: PA01 50 CFU/larva
Protocol: The Pseudomonas aeruginosa killing ability of the endolysin LNT101 was also confirmed in vivo. As an animal model for the in vivo effectivity evaluation, Galleria mellonella was used. The Galleria mellonella model was divided into the healthy group (non-infection group), Pseudomonas aeruginosa infected group (drug non-administration group), 2 LNT101 administration groups in which LNT101 was administered into the infection model, Colistin administration group in which colistin was administered into the Pseudomonas aeruginosa infected model, and combination administration group in which LNT101 and colistin were administered in combination into the Pseudomonas aeruginosa infected model to progress an experiment, and 10 of Galleria mellonella per each group was used.
The Pseudomonas aeruginosa infected model was prepared by infecting Pseudomonas aeruginosa PA01 at the LD80 concentration, 50 CFU/larva, and LNT101 was administered at 0.6 μg/larva (3 mg/Kg) and 6 μg/larva (30 mg/Kg), respectively. Colistin was administered at 0.5 μg/larva (2.5 mg/Kg), and for administration in combination, Colistin at 0.5 μg/larva (2.5 mg/Kg) and LNT101 at 6 μg/larva (30 mg/Kg) were administered. […] In particular, in the LNT101 6 μg/larva (30 mg/Kg) administration group, the viability of 30% was confirmed.

E. coli = assay: MIC and MBC, broth microdilution in CAA media; format: cell-based
Protocol: (§1) In addition, MIC (Minimal Inhibitory Concentration) and MBC (Minimal Bactericidal Concentration) of the fusion polypeptide LNT103 were measured. […] Specifically, the LNT103 was treated at a concentration of 64 μg/ml to a 96 well microplate row A, and the LNT103 was treated at a concentration where serial dilution was performed by ½ in rows B-G. To the row H, LNT103 was not treated. After that, the corresponding bacterium strain (type or QC, CCARM and clinical separation strain; See Tables 2-4) was treated in an amount of 5×10^5 CFU/ml, total 100 μl in all wells. Then, it was cultured at 37° C. for 18 hours. MIC was determined to be the lowest concentration at which no colonies were identified by confirming the number of the colonies in each well.

A. baumannii = assay: MIC and MBC, broth microdilution in CAA media; format: cell-based
Protocol: as §1

P. aeruginosa = assay: MIC and MBC, broth microdilution in CAA media; format: cell-based
Protocol: as §1

[2] = A. baumannii 643(Kyungpook National University)
[3] = A. baumannii 3680(Gyeongsang National University)

B1: LNT101: endolysin derived from bacteriophage PBPA90, amino acid sequence SEQ ID NO: 1 (259 aa), purified with 6× His tag (protein)
chain: MGTVLKRGDRGSAVEDLQMKLRVAGYAVSADGIFGGDTEKAVRDFQASKALVVDGKVGPATLAELAKSATVPAKWEAIPFPTANKSRSAAMPTLNAVGAMTGTDSRLLATFASIESAFDYTVKASTSSATGWFQFLDATWDDMIKAHGSKYGIPKDPTRALRKDPRANALMGAEFLKGNAAVLRPVINREPSDTDLYLAHFLGAGGAKKFLSADQKTLGEVLFPKPAKANPSIFSNKGVPRTLAEIYKLFEDKVSKHRA
modifications: 6xHis tag; synthetic_Endolysin LNT101
30%: viability of Galleria mellonella ([1]; LNT101 6 μg/larva (30 mg/Kg), 72 hours)
the viability was increased: viability of Galleria mellonella ([1]; LNT101 0.6 or 6 μg/larva, Colistin 0.5 μg/larva, observation for 72 hours)

B2: LNT103: fusion polypeptide [Cecropin A]-[linker (GSGSGS)]-[endolysin LNT102]; SEQ ID NO: 15 (MAS, His tag) used in the tests (protein)
chain: MASKWKLFKKIEKVGQNIRDGIIKAGPAVAVVGQATQIAKGSGSGSMGTVLKRGDRGSAVEDLQMKLNVAGYNLSADGIFGGDTEKAVRDVQAGAGLVVDGKVGPKTLYAIAKSATVPAKWEAIPFPTANKSRSAAMPTLNAVGAMTGVDSRLLATFASIESAFDYTVKAKTSSATGWFQFLDATWDDMIKAYGSKYGIPKDPTRALRKDPRANALMGAEFIKGNAAVLRPVINREPSDTDLYLAHFLGAGGAKKFLSADQKTLGEVLFPKPAKANPSIFSNKGVPRTLAEIYKLFEDKVSKHRALEHHHHHH
modifications: synthetic_Fusion Polypeptide LNT103 with MAS, His tag, and extra sequence
8 µg/mL: MBC (E. coli; E. coli ATCC 8739) | MIC (E. coli; E. coli ATCC 8739) | MBC (E. coli; E. coli CCARM 1A746) | MIC (E. coli; E. coli CCARM 1A746) | MBC (E. coli; E. coli CCARM 1B684) | MBC (E. coli; E. coli F481) | MIC (E. coli; E. coli F481) | MBC (E. coli; E. coli F485) | MBC (E. coli; E. coli UPEC 3181) | MIC (E. coli; E. coli UPEC 3181) | MIC (A. baumannii; [2]) | MBC (A. baumannii; [3]) | MIC (A. baumannii; [3]) | MBC (A. baumannii; A. baumannii ATCC 17978) | MIC (A. baumannii; A. baumannii ATCC 17978) | MBC (A. baumannii; A. baumannii ATCT 19606) | MIC (A. baumannii; A. baumannii ATCT 19606) | MBC (A. baumannii; A. baumannii CCARM 12001) | MIC (A. baumannii; A. baumannii CCARM 12001) | MBC (A. baumannii; A. baumannii CCARM 12026) | MIC (A. baumannii; A. baumannii CCARM 12026) | MBC (A. baumannii; A. baumannii CCARM 12035) | MIC (A. baumannii; A. baumannii CCARM 12035) | MBC (A. baumannii; A. baumannii CCARM 12202) | MIC (A. baumannii; A. baumannii CCARM 12202) | MBC (A. baumannii; A. baumannii F15) | MIC (A. baumannii; A. baumannii F15) | MBC (A. baumannii; A. baumannii F67) | MIC (A. baumannii; A. baumannii F67) | MBC (A. baumannii; A. baumannii F69) | MIC (A. baumannii; A. baumannii F69) | MBC (A. baumannii; A. baumannii F71) | MIC (A. baumannii; A. baumannii F71) | MBC (A. baumannii; A. baumannii KACC 13090) | MIC (A. baumannii; A. baumannii KACC 13090) | MBC (A. baumannii; A. baumannii KACC 14233) | MIC (A. baumannii; A. baumannii KACC 14233) | MIC (P. aeruginosa; P. aeruginosa ATCT 13388) | MIC (P. aeruginosa; P. aeruginosa CCARM 2134) | MBC (P. aeruginosa; P. aeruginosa F102) | MIC (P. aeruginosa; P. aeruginosa F102) | MBC (P. aeruginosa; P. aeruginosa F141) | MIC (P. aeruginosa; P. aeruginosa F141) | MBC (P. aeruginosa; P. aeruginosa F341) | MIC (P. aeruginosa; P. aeruginosa F341) | MBC (P. aeruginosa; P. aeruginosa F388) | MIC (P. aeruginosa; P. aeruginosa F388) | MIC (P. aeruginosa; P. aeruginosa PAO1(ATCC 15692))
16 µg/mL: MBC (E. coli; E. coli F340) | MIC (E. coli; E. coli F340) | MBC (E. coli; E. coli F524) | MIC (E. coli; E. coli F524) | MIC (E. coli; E. coli F716) | MIC (E. coli; E. coli F852) | MBC (A. baumannii; [2]) | MBC (A. baumannii; A. baumannii CCARM 12015) | MIC (A. baumannii; A. baumannii CCARM 12015) | MBC (A. baumannii; A. baumannii F4) | MIC (A. baumannii; A. baumannii F4) | MBC (A. baumannii; A. baumannii F70) | MIC (A. baumannii; A. baumannii F70) | MBC (P. aeruginosa; P. aeruginosa ATCC 9027) | MIC (P. aeruginosa; P. aeruginosa ATCC 9027) | MIC (P. aeruginosa; P. aeruginosa ATCC 10145) | MBC (P. aeruginosa; P. aeruginosa ATCC 15522) | MIC (P. aeruginosa; P. aeruginosa ATCC 15522) | MBC (P. aeruginosa; P. aeruginosa ATCT 13388) | MBC (P. aeruginosa; P. aeruginosa CCARM 2134) | MBC (P. aeruginosa; P. aeruginosa F265) | MIC (P. aeruginosa; P. aeruginosa F265) | MBC (P. aeruginosa; P. aeruginosa PAO1(ATCC 15692))
32 µg/mL: MBC (E. coli; E. coli F716) | MBC (E. coli; E. coli F852) | MBC (E. coli; E. coli F859) | MIC (E. coli; E. coli F859) | MBC (E. coli; E. coli UPEC 3042) | MIC (E. coli; E. coli UPEC 3042) | MBC (P. aeruginosa; P. aeruginosa ATCC 10145) | MBC (P. aeruginosa; P. aeruginosa CCARM 2144) | MIC (P. aeruginosa; P. aeruginosa CCARM 2144)
4 µg/mL: MIC (E. coli; E. coli CCARM 1B684) | MBC (E. coli; E. coli CCARM 1G448) | MIC (E. coli; E. coli CCARM 1G448) | MBC (E. coli; E. coli CCARM 1460) | MIC (E. coli; E. coli CCARM 1460) | MIC (E. coli; E. coli F485) | MBC (E. coli; E. coli F862) | MIC (E. coli; E. coli F862) | MBC (E. coli; E. coli FORC81) | MIC (E. coli; E. coli FORC81) | MBC (A. baumannii; A. baumannii F65) | MIC (A. baumannii; A. baumannii F65) | MBC (A. baumannii; A. baumannii F66) | MIC (A. baumannii; A. baumannii F66) | MBC (A. baumannii; A. baumannii F68) | MIC (A. baumannii; A. baumannii F68)

— patent US11807881B2, “Polypeptide, fusion polypeptide, and antibiotic against gram-negative bacteria comprising same” (priority 2020, dated 2023)
